Test results as given in publication PMC10135305.

Target: C-terminal domain of catalase-3 (CAT-3) of Neurospora crassa (TDC3) (Neurospora crassa) (UniProt Q9C169)
Assay: SEC; Superdex 75 HR 10/300 on FPLC; TDC3 1 mg/mL injected, 0.75 mL/min; mass from gel filtration standards

C-terminal domain of catalase-3 (CAT-3) of Neurospora crassa (TDC3) (from UniProt Q9C169 568-719) (domain or fragment)
stoichiometry N: 2
